Laboratory results taken from US20200317768A1 (published 2020).

T1: human FcγRIIb extracellular domain, C-terminal His-tag (human, UniProt P31994 43-217)
T1 construct: also called FcgRIIb; not shown: His-tag added to the C-terminus
T1 sequence: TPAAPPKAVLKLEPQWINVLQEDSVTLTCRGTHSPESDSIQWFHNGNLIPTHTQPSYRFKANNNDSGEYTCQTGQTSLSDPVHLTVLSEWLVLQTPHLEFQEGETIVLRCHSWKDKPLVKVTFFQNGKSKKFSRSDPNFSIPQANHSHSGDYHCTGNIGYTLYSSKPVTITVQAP

T2: human FcγRIIaH extracellular domain, C-terminal His-tag (human, UniProt P12318 34-217)
T2 construct: also called human FcγRIIa (type H); FcgRIIaH; not shown: His-tag added to the C-terminus
T2 sequence: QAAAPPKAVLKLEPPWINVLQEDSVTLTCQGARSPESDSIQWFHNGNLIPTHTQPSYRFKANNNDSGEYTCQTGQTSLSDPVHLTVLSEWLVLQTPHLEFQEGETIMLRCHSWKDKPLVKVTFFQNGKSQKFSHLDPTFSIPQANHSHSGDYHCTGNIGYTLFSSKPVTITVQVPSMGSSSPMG

T3: human FcγRIIaR extracellular domain, C-terminal His-tag (human, UniProt P12318 34-217)
T3 construct: also called human FcγRIIa (type R); FcgRIIaR; not shown: His-tag added to the C-terminus
T3 chain: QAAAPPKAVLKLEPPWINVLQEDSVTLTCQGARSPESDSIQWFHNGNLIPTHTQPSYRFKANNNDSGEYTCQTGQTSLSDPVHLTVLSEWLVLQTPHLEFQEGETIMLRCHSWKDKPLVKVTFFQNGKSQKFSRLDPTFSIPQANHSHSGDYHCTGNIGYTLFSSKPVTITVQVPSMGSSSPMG


Legend:
[1] = target: T4, human FcγRIIIaV extracellular domain, C-terminal His-tag (human, UniProt P08637 17-208); assay: SPR (BIACORE), antibody captured, soluble FcgR as analyte, 25C
T4 construct: also called FcgRIIIaV; not shown: His-tag added to the C-terminus
T4 sequence (P08637 17-208 F176V): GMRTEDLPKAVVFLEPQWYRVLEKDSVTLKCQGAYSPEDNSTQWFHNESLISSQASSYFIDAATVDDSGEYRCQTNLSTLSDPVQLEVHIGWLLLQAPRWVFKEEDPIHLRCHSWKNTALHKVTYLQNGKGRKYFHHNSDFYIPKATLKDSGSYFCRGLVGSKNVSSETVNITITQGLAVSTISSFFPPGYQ
Protocol: (§1) The kinetic analysis of interactions between these antibodies and FcγR was carried out using BIACORE® T200 or BIACORE® 4000 (GE Healthcare). HBS-EP+ (GE Healthcare) was used as the running buffer, and the measurement temperature was set to 25° C. A chip produced by immobilizing Protein A. Protein A/G or mouse anti-human IgG kappa light chain (BD Biosciences) onto a Series S Sensor Chip CM4 or CM5 (GE Healthcare) by the amine-coupling method was used. […] After the measurement, the antibody captured on the chip was washed off by allowing reaction with 10 mM glycine-HCl, pH1.5 and 25 mM NaOH so that the chip was regenerated and used repeatedly. The sensorgrams obtained as measurement results were analyzed by the 1:1 Langmuir binding model using the BIACORE® Evaluation Software to calculate the binding rate constant ka (L/mol/s) and dissociation rate constant kd (l/s), and the dissociation constant KD (mol/L) was calculated from these values. […] Regarding such interactions, KD values were calculated using the following 1:1 binding model described in BIACORE® T100 Software Handbook BR1006-48 Edition AE.
(§2) Human FcγRIIb-enhanced Fc variants with anti-myostatin variable region were constructed and their affinity for human FcγRs was evaluated. […] In addition, substitutions (Q311R/D413K or […]) were also introduced. The variants were expressed using M103202L1045-SK1 as light chain and their affinity to human FcγRs was analyzed according to the method shown in Example 34.

[2] = target: T1, human FcγRIIb extracellular domain, …; assay: as above
Protocol: as §1, §2

[3] = target: T2, human FcγRIIaH extracellular domain, …; assay: as above
Protocol: as §1, §2

[4] = target: T3, human FcγRIIaR extracellular domain, …; assay: as above
Protocol: as §1, §2

[5] = target: T4, human FcγRIIIaV extracellular domain, …; assay: SPR; KD of SG1 divided by KD of variant;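 further: relative to parent M103205H795-SG1 carrying the SG1 human heavy chain constant region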
Protocol: as §1, §2

[6] = target: T1, human FcγRIIb extracellular domain, …; assay: SPR; KD of SG1 divided by KD of variant;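 further: relative to parent M103205H795-SG1 carrying the SG1 human heavy chain constant region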
Protocol: as §1, §2

[7] = target: T2, human FcγRIIaH extracellular domain, …; assay: SPR; KD of SG1 divided by KD of variant;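 further: relative to parent M103205H795-SG1 carrying the SG1 human heavy chain constant region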
Protocol: as §1, §2

[8] = target: T3, human FcγRIIaR extracellular domain, …; assay: SPR; KD of SG1 divided by KD of variant;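 further: relative to parent M103205H795-SG1 carrying the SG1 human heavy chain constant region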
Protocol: as §1, §2

Row | Binder | Kd [1] [µM] | Kd [2] [µM] | Kd [3] [µM] | Kd [4] [µM] | KD fold (SG1 = 1) [5] [fold] | KD fold (SG1 = 1) [6] [fold] | KD fold (SG1 = 1) [7] [fold] | KD fold (SG1 = 1) [8] [fold]
1 | MS1032LO19-SG1 (MS103240H795-SG1/M103202L1045-SK1) (antibody, human IgG1, kappa) heavy: not shown light: DIVMTQSPATLSLSPGERATLSCTTSQSVYHENWLSWFQQKPGQPPKLLIYWASTLAYGVPSRFSGSGSGTDFTLTISSLQPEDAATYYCAGGYGGGRYAFGQGTKVEIKRTVAAPSVFIFPPSDEQLKSGTASVVCLLNNFYPREAKVQWKVDNALQSGNSQESVTEQDSKDSTYSLSSTLTLSKADYEKHKVYACEVTHQGLSSPVTKSFNRGEC | 0.81 | 0.58 | 0.75 | 1.1 | 1 | 1 | 1 | 1
2 | MS103240H795-MY009/M103202L1045-SK1 (antibody, human IgG1, kappa, CH = SG1 with P238D (EU numbering)) heavy: not shown light: DIVMTQSPATLSLSPGERATLSCTTSQSVYHENWLSWFQQKPGQPPKLLIYWASTLAYGVPSRFSGSGSGTDFTLTISSLQPEDAATYYCAGGYGGGRYAFGQGTKVEIKRTVAAPSVFIFPPSDEQLKSGTASVVCLLNNFYPREAKVQWKVDNALQSGNSQESVTEQDSKDSTYSLSSTLTLSKADYEKHKVYACEVTHQGLSSPVTKSFNRGEC | 220 | 1.3 | 73 | 23 | 0.004 | 4.5 | 0.01 | 0.05
3 | MS103240H795-TT10/M103202L1045-SK1 (antibody, human IgG1, kappa, CH = SG1 with P238D/T250V/S267A/T307P/A330K (EU numbering)) heavy: QVQLVESGGGLVQPGGSLRLSCAVSGIDLSHDDISWVRQAPGKGLEWVSIISYAGSTYYASWAKGRLTISKDTSKNQVVLTMTNMDPVDTATYYCARGVPAYSHGGDLWGQGTLVTVSSASTKGPSVFPLAPSSKSTSGGTAALGCLVKDYFPEPVTVSWNSGALTSGVHTFPAVLQSSGLYSLSSVVTVPSSSLGTQTYICNVNHKPSNTKVDKKVEPKSCDKTHTCPPCPAPELLGGDSVFLFPPKPKDVLMISRTPEVTCVVVDVAHEDPEVKFNWYVDGVEVHNAKTKPREEQYNSTYRVVSVLPVLHQDWLNGKEYKCKVSNKALPKPIEKTISKAKGQPREPQVYTLPPSREEMTKNQVSLTCLVKGFYPSDIAVEWESNGQPENNYKTTPPVLDSDGSFFLYSKLTVDKSRWQQGNVFSCSVMHEALHNHYTQKSLSLSP light: DIVMTQSPATLSLSPGERATLSCTTSQSVYHENWLSWFQQKPGQPPKLLIYWASTLAYGVPSRFSGSGSGTDFTLTISSLQPEDAATYYCAGGYGGGRYAFGQGTKVEIKRTVAAPSVFIFPPSDEQLKSGTASVVCLLNNFYPREAKVQWKVDNALQSGNSQESVTEQDSKDSTYSLSSTLTLSKADYEKHKVYACEVTHQGLSSPVTKSFNRGEC | 790 | 0.63 | 56 | 8.7 | 0.001 | 9.2 | 0.013 | 0.13

The remaining binders from weak to strong by Kd [1], led by results:

Row | Kd [1] [µM] | Kd [2] [µM] | Kd [3] [µM] | Kd [4] [µM] | KD fold (SG1 = 1) [5] [fold] | KD fold (SG1 = 1) [6] [fold] | KD fold (SG1 = 1) [7] [fold] | KD fold (SG1 = 1) [8] [fold] | Binder
4 | 170 | 0.29 | 44 | 14 | 0.005 | 20 | 0.017 | 0.08 | MS103240H795-TT09/M103202L1045-SK1 (antibody, human IgG1, kappa, CH = SG1 with P238D/T250V/V264I/T307P/A330K (EU numbering)) heavy: QVQLVESGGGLVQPGGSLRLSCAVSGIDLSHDDISWVRQAPGKGLEWVSIISYAGSTYYASWAKGRLTISKDTSKNQVVLTMTNMDPVDTATYYCARGVPAYSHGGDLWGQGTLVTVSSASTKGPSVFPLAPSSKSTSGGTAALGCLVKDYFPEPVTVSWNSGALTSGVHTFPAVLQSSGLYSLSSVVTVPSSSLGTQTYICNVNHKPSNTKVDKKVEPKSCDKTHTCPPCPAPELLGGDSVFLFPPKPKDVLMISRTPEVTCVVIDVSHEDPEVKFNWYVDGVEVHNAKTKPREEQYNSTYRVVSVLPVLHQDWLNGKEYKCKVSNKALPKPIEKTISKAKGQPREPQVYTLPPSREEMTKNQVSLTCLVKGFYPSDIAVEWESNGQPENNYKTTPPVLDSDGSFFLYSKLTVDKSRWQQGNVFSCSVMHEALHNHYTQKSLSLSP light: DIVMTQSPATLSLSPGERATLSCTTSQSVYHENWLSWFQQKPGQPPKLLIYWASTLAYGVPSRFSGSGSGTDFTLTISSLQPEDAATYYCAGGYGGGRYAFGQGTKVEIKRTVAAPSVFIFPPSDEQLKSGTASVVCLLNNFYPREAKVQWKVDNALQSGNSQESVTEQDSKDSTYSLSSTLTLSKADYEKHKVYACEVTHQGLSSPVTKSFNRGEC
5 | 150 | 1 | 32 | 21 | 0.005 | 5.8 | 0.023 | 0.05 | MS103240H795-MY214/M103202L1045-SK1 (antibody, human IgG1, kappa, CH = SG1 with P238D/T250V/T307P (EU numbering)) heavy: QVQLVESGGGLVQPGGSLRLSCAVSGIDLSHDDISWVRQAPGKGLEWVSIISYAGSTYYASWAKGRLTISKDTSKNQVVLTMTNMDPVDTATYYCARGVPAYSHGGDLWGQGTLVTVSSASTKGPSVFPLAPSSKSTSGGTAALGCLVKDYFPEPVTVSWNSGALTSGVHTFPAVLQSSGLYSLSSVVTVPSSSLGTQTYICNVNHKPSNTKVDKKVEPKSCDKTHTCPPCPAPELLGGDSVFLFPPKPKDVLMISRTPEVTCVVVDVSHEDPEVKFNWYVDGVEVHNAKTKPREEQYNSTYRVVSVLPVLHQDWLNGKEYKCKVSNKALPAPIEKTISKAKGQPREPQVYTLPPSREEMTKNQVSLTCLVKGFYPSDIAVEWESNGQPENNYKTTPPVLDSDGSFFLYSKLTVDKSRWQQGNVFSCSVMHEALHNHYTQKSLSLSP light: DIVMTQSPATLSLSPGERATLSCTTSQSVYHENWLSWFQQKPGQPPKLLIYWASTLAYGVPSRFSGSGSGTDFTLTISSLQPEDAATYYCAGGYGGGRYAFGQGTKVEIKRTVAAPSVFIFPPSDEQLKSGTASVVCLLNNFYPREAKVQWKVDNALQSGNSQESVTEQDSKDSTYSLSSTLTLSKADYEKHKVYACEVTHQGLSSPVTKSFNRGEC
6 | 96 | 0.68 | 55 | 16 | 0.008 | 8.5 | 0.014 | 0.07 | MS103240H795-TT08/M103202L1045-SK1 (antibody, human IgG1, kappa, CH = SG1 with P238D/T250V/T307P/A330K (EU numbering)) heavy: QVQLVESGGGLVQPGGSLRLSCAVSGIDLSHDDISWVRQAPGKGLEWVSIISYAGSTYYASWAKGRLTISKDTSKNQVVLTMTNMDPVDTATYYCARGVPAYSHGGDLWGQGTLVTVSSASTKGPSVFPLAPSSKSTSGGTAALGCLVKDYFPEPVTVSWNSGALTSGVHTFPAVLQSSGLYSLSSVVTVPSSSLGTQTYICNVNHKPSNTKVDKKVEPKSCDKTHTCPPCPAPELLGGDSVFLFPPKPKDVLMISRTPEVTCVVVDVSHEDPEVKFNWYVDGVEVHNAKTKPREEQYNSTYRVVSVLPVLHQDWLNGKEYKCKVSNKALPKPIEKTISKAKGQPREPQVYTLPPSREEMTKNQVSLTCLVKGFYPSDIAVEWESNGQPENNYKTTPPVLDSDGSFFLYSKLTVDKSRWQQGNVFSCSVMHEALHNHYTQKSLSLSP light: DIVMTQSPATLSLSPGERATLSCTTSQSVYHENWLSWFQQKPGQPPKLLIYWASTLAYGVPSRFSGSGSGTDFTLTISSLQPEDAATYYCAGGYGGGRYAFGQGTKVEIKRTVAAPSVFIFPPSDEQLKSGTASVVCLLNNFYPREAKVQWKVDNALQSGNSQESVTEQDSKDSTYSLSSTLTLSKADYEKHKVYACEVTHQGLSSPVTKSFNRGEC
